Experimental findings from article PMC4732737 are described below.

In assay [1] the target is AviB-tagged BG505 SOSIP.v4.2 trimer (HIV-1). The experiment in a line: BLI. (In general: In BLI a coated tip is dipped into the sample, and binding shifts an interference pattern.)
In assay [2] the target is AviB-tagged BG505 SOSIP.664 A316W trimer (HIV-1). The experiment in a line: BLI.

soluble CD4 (domain or fragment): the fold reduction of affinity against the wild-type trimer in assay [1] and in assay [2] was 2.4 fold each time.
